Reference: a protein production outcome set (Wang et al. 2014)

Test: label from the status in PepcDB records

Sequence	protein production
MCVHTRKPDGLHPKPVSHCPVIDTGQSEWRSFTFTTICMGFRPRQAYRQPSPIANETENTMSNSNIQQEAQDIHDQLPESVDASPEDIEERLTTLVDDYRVPLDEAQRSVVSTYLSDSDVDRDDVSSENENQQVDLEEITEAEQWVDITAKVADLWEPRSDSIAQVGLLGDETGTIKFTKWAKSDLEALTEGQVYRLGNVVTDEYQGQYSVKLNRTTTIEALDQDIEVGDDTTDAEGALVDIQSGSGLIKRCPEDDCTRVLQNGRCSEHGEGEGEFDLRIKGVIDNGDTVQEVIFDKEATEQVADITLAQAQEMAMDALDTSVVADEIREVTLGRYYRVQGPELGRYLLVNEFEQLAEMHDPEQLLITARSILEHHHHHH	not failed
MEATGLITEYNPFHNGHLYHLKKAQELTKADVTIVLMSGNWVQRGLPAITDKWKRAQAAIDAGADLVFELPFYYAVQAGEIFAQGAVRLLSDLQVSSIICGSEHADIDFINLAAHEPDISGNSNFDKKNRTFASNYAAALEEKTGFYLENANDILAFSYAKAILNQNLTEKIKLRTISRVSADYHDQFLNDGEIASATAIRKALSEGQNVDSYTP	failed
MSFASETKKELTHMDVSDSDAKVELAAFIRMNGAISFSNQLVIMDVQTENAAIARRMYQLLKDLYEVPIELLVRRKMKLKKNNVYIVRLKSGTRGILEDLRILEPPMTFTKSIDRGFVKKRSAKRAYLRGAFLASGSVNNPETSSYHLEIFSVYEEHNEAICALMNQFDLNARTLERKNGFITYLKEAEKITEFLSIIGATSALLHFEDVRIMRDMRNSVNRLVNCETANLNKTINAAVRQIDNIKYIQSTVGLEALPERLREIAALRIANEDVTLKELGEMLTTGQVSKSGINHRLRKLDQIAERLRSGETPAQVGLKVSNS	failed
MNSIVSTVRGILTLSRSETFDSPRDEAKSDLKVLSVAWNQVCSGFIVGTNHGFNVYSCKPMIKKSISRAPHESGFKVAEMLFLSNLFAFVGNGYNNSEYPPNKVFVWDDYRNCCLSELTFKSEVIAVKLAREHVVVVLKQNIYVYTFNNLKVDRVIETLMNPKGLCCVTHVESKAVLACPGFHPGQVQVHDLRWNVIKFIKAHDSAIACMTLTLDGSLLATASTKGTLIRIFNAVDGTLLQEFRRGVERAEIYNVAISSNLKWVAASSEKGTLHVFRLRPDILSFDPASSSSFIRVILPKYLYENERSFAQFSLPASTKFIVGFGSENTVLLVGIDGSFRRCKFDHADGGQMVELEHKYFFSLQETGNTMVGGV	failed
SLQTSDVVIHRKENEGFGFVIISSLNRPESGSTITVPHKIGRIIDGSPADRCAKLKVGDRILAVNGQSIINMPHADIVKLIKDAGLSVTLRIIPQEELNSP	not failed
MTITDKNRLTGEADPRRTSLYGPPSMDALTERALHLARAGRALLGIVGEPGAGKSTFAEQLRARLEKERPGLAVTVSMDGFHLAQKVIEARGQAADKGTIDTFDADGFVALLRRTRAETGDTENTESTVWWPEFDRDLEDPVAGSIEVAPHHRLVIVDGNFLLSAQEPWRQVKGLLDETWFLDALPEPRRERLTRRYISYGFTPEAARAKTLGVDEDTSALIRSTVSRADLVIGEARESGGVSDCLEHHHHHH	failed
MTKQSKTQIRICFVGDSFVNGTGDPECLGWTGRVCVNANKKGYDVTYYNLGIRRDTSSDIAKRWLQEVSLRLHKEYNSLVVFSFGLNDTTLENGKPRVSIAETIKNTREILTQAKKLYPVLMISPAPYIEQQDPGRRRRTIDLSQQLALVCQDLDVPYLDVFPLLEKPSVWLHEAKANDGVHPQAGGYTEFARIVENWDAWLNWFR	not failed
MGHHHHHHSHMAAPEAEVLSSAAVPDLEWYEKSEETHASQIELLETSSTQEPLNASEAFCPRDCMVPVVFPGPVSQEGCCQFTCELLKHIMYQRQQLPLPYEQLKHFYRKPSPQAEEMLKKKPRATTEVSSRKCQQALAELESVLSHLEDFFARTLVPRVLILLGGNALSPKEFYELDLSLLAPYSVDQSLSTAACLRRLFRAIFMADAFSELQAPPLMGTVVMAQGHRNCGEDWFRPKLNYRVPSRGHKLTVTLSCGRPSIRTTAWEDYIWFQAPVTFKGFRE	failed
MSEQKEDLFKPVGEAAAEVEDESIAEQNKANDGVKLTGAQDAMGHPVQEIESLCMNCGKNGTTRLLLTSIPYFREIIIMSFDCPHCGFKNCEIQPASQIQEKGSRYVLKVECREDFNRQVIKSETATCKFVELDIEIPAKRGQLTTVEGLLSEMIDDLSQDQEMRKSIDEALYKKIDDFIQKVKSYINCEPNTIPITFILDDPAGNSWIEYKPGEPQHKWSHTQYVRTDEQNVQVGIITRDQLEQRRQEQLKQLANRERNPSESVKVGSANPQFLSDATDIENFNNEVQTFRASCPSCTQECETHMKPVNIPHFKEVIIMSTVCDHCGYKSNEVKTGGAIPDKGRRITLYCDDAADLSRDILKSETCSMVIPELHLDIQEGTLGGRFTTLEGLLRQVYEELESRIFTQTSDSMDEATKARWVEFFAKLKEAIAGKVKFTVIMEDPLAGSYIQNVYAPDPDPNMTIEDYERTKEQNEDLGLSDIKVE	failed
MEGFVLAGTSSGVGKTVATLATLTALEDAGYQPQPAKAGPDFIDPSHHEALVDTPSRTLDPWLAGEDGMRRTYWRGTGDICVVEGVMGLYDGTKTSTAAVAEGLDLPVVLVVDAKAGMESVAATALGFAQYADRIGVDIEVAGILAQRAHGGRHADGIRDALPEDLTYFGRIPPMSDLEIPDRHLGLHMGSEAGLDRDALSTAAETIDIERLVETARAPPEVATTERNTGDSPADRRVAVAQDSAFCFIYPSVLERLRSEASVEPFSPVAGDSVPDADAIYLPGGYPELHGESLETGGTLDEIAVRAADGVPVYGECGGLMALSESLTTTDGDTYEMAGVLPADIEMQDRYQALDHVELEARADTVAATSGAHRRGHEFHYSAATLGSDASFAFDMVRGDGIDGEHDGLTEYSTIGTYCHCHGESGAFDRLLAVPSKDILEHHHHHH	failed
SEEEEYEQIPQENPPEELSQDPVLELSGGLREKEQKTPRRLRLILMGKTGSGKSATGNSILGRDVFESKLSTRPVTKTSQRRSREWAGKELEVIDTPNILSPQVSPEVADAICQAIVLSAPGPHAVLLVTQLGRFTDEDQQVVRRLQEVFGVGVLGHTILVFTRKEDLAGGSLEDYVRETNNQALAWLDVTLARRHCGFNNRAQGEEQEAQLRELMEKVEAIMWENEGDYYSNKAYQYTQQNFRLKELQERQVSQGQGSEDVPGEESWLEGLSQIQKESEEAHRCLLGKADL	not failed
MHVALNQTMPDDVQGTVATIYTSSEQLQLFAFEAEVNENFEMAAAYYKERLVREPQNLDHWLDYGAFCLLTEDNIKAQECFQKALSLNQSHIHSLLLCGVLAVLLENYEQAEIFFEDATCLEPTNVVAWTLLGLYYEIQNNDIRMEMAFHEASKQLQARMLQAQVTKQKSTGVEDTEERGKRESSLGPWGITNGSATAIKVEAPAGPGAALSILDKFLEESSKLQSDSQEPILTTQTWDPSISQKPSNTFIKEIPTKKEASKCQDSSALLHPGLHYGVSQTTTIFMETIHFLMKVKAVQYVHRVLAHELLCPQGGPSCEYYLVLAQTHILKKNFAKAEEYLQQAAQMDYLNPNVWGLKGHLYFLSGNHSEAKACYERTISFVVDASEMHFIFLRLGLIYLEEKELEELTEAEDALSEANALNNYNAEVWAYLALVCLKVGRQLEAEQAYKYMIKLKLKDEALLAEIHTLQETVGFGNPSF	failed
MIKLSSITAHILDIWHRRNSRSYIAHLRSLGIRIGDGCIFRDPLTTRIDVSRPALVSIGSNVDMNTYFQILTHDWASFVFRNKYHDFVNSSGRVEIGSNIYIGTNVIVLRGVTIGDNCVIGAGSVVTHDIPANSVAVGAPCRVVCSLEHHHHHH	not failed
RAQTFEAVTPEYSRYAGQAFGSFQAMLSDLPDELGETIPNFHNMEFRLGQLHDALKTDPVGRAEEVRYYIDEIEKRAEEMCKAERLHREGKLPKRVCHCDTKVNNMLFDEDGHVLCVIDLDTVMPNFIFSDYGDFLRTGANTGEEDDKDLDHVNFDMEIFKAFTEGYLKGASSFLTDVEIENLPYAAALFPYMQCVRFLTDYINGDTYYKIKYPEHNLVRTRAQFRLLQSVEDCMPQMQAFIDQCLRY	not failed
MVEASFGYEDFIVRMATGLLVGALIGIERERAQLVGKSEKSGSIPGFRSMGFMGLYGSATGYVSSYTASQYGVVFAALIAGLGAATITLLTLLFAYTRMIRLRAMGFTTYVVILLTFVAGLMSGMGLILEGVAVGVIGGLLLASKYPVVRMTRSVSYSELIALMEVAALILVLGPAVYYAGGYIPFIDVFQVYIFFTAIVAVSFTSYIASRIWGVRGFVTSIILGSIVNSEAVVASIASRRDIDRGVVFQAVVAALSVMQLRIAGLGLLALLVGGGFPQGEVVLHFRDNILPWLILLALMTIASIVAWASTLALEKVENKGVIPGTPLQWGVAVRGAVAFLLLTLLFDAASRALSGYTGNIAFLTLSIIGGFISANATLLSLAGLLTRLGADTFTVGILGIALGATFNKILYTRAVGAPPETVKEITKATALMSLLPVFFLILFWLLLQTPTG	failed
VYGSEVESKIIEFTIVGADEIIAEKLGISVGDFVYKIIRLRIIHSIPTIMEHTWMPISVIPGVEVSVLEESIYSHIQNKLGLQVGTSVVRVKGIRPDDKEKQFMNLTNQDFLMRVEQVAYLTDGRTFEYSYADHLPETFEFETVITAKSYKEA	not failed
MKRLLFTVISLLFSVSVLAAESSADRIDLTSSTVGYAAIVIFILAYILVMGEEKLHMRKSKPVLVAAGVIWILIGFVYTGDNAVLAEEAFRENLLKFAELMLFLLVAMTYINALEERRLFDALSAWLMKKGFTYRKLFWITGFLAFFISPIADNLTTALLMSAVVMKVAEGNKKFVALCCSSIVIAVNAAGAFSPFGDITTLMVWQSGKVEFTEFLQLFVPALVNYLIPAVIMSFFIENKSPTTLHTEVELKRGALRITFLFLLTVATAVACHIWLHLPPVLGMMMGLGYLQFFGYFLRMTLPGSLARKRAMAAREGDQKRLQQLGGVVPFDVFSRVSRAEWDTLLFFYGIVLCVGGLGFMGYLGLLSESLYGGLDPTIANSILGVVSALVDNIPVMFAVLSMDPEMSTGHWLLITLACCTGGSLLSIGSASGVALMGQARGYYTFMSHLKWTPVIAIGYAASILLHLWLNQATFLS	failed
MSKVFICAAIPDEQAIKEEGAVAVATAIEAGDERRARAKFHWQFLEHYPAAQDCAYKFLVCEDKPGIPRPALDSWDAEYMQENRWDEGAASFVPVETESDPMNVAFDKLAPEVQNAVMVKFDTCENITVDMVISAQELLQEDMATFDGHIVEALMKMPEVNAMYPELKLHAIGWVKHKCKPGAKWPEIQAEMRIWKKRREGERKETGKYTSVVDLARARVHRQHTENSAEKIPPVTAVIRREYKQTWKTLDDELAYALWPGDVDAGNIDGSIHRWAKNEVIDNDREDWKRISASMRKQPDALRYDRQTIFGLVRERPIDIHKDPVALNKYITEYLTTKGVFEDEGTNQSATDTLSSPVPETDAVETAIPDNEKTECKVEVEPSVEREGPFYFLFTDKDGEKYGRANKLSGLDKALAAGATEITKEEYFARKNGTYTGLPQNANTAQNSEQPEPVKVTADEVKKIMQAANISQPDANQLLAASRGEFVAGISDPNDPKWVKGIETRDSVNQNQQETEQNDQKAEQNSPNTQQNEPETKQPEPVAQQEPEKVCTACGQTGGGNCPDCGAVMGDATYQETFDEEYQVEVQEDDPEEMEGAEHPHKENTDGNQHHDSDNETGETADHSIKVNGHQEITSTSRTCDHLMIDLETMGKNPDAPIISIGAIFFDPQTGDMGPEFSKTIDLETAGGVIDRDTIKWWLKQSREAQSAIMTDEIPLDDALLQLREFIDENSGEFFVQVWGNGANFDNTILRRSYERQGIPCPWRYYNDRDVRTIVELGKAIDFDARTAIPFEGERHNALDDARYQAKYVSVIWQKLIPNQADF	failed
MSPFTGSAAPTPEWRHLRVEITDGVATVTLARPDKLNALTFEAYADLRDLLAELSRRRAVRALVLAGEGRGFCSGGDVDEIIGATLSMDTARLLDFNRMTGQVVRAVRECPFPVIAALHGVAAGAGAVLALAADFRVADPSTRFAFLFTRVGLSGGDMGAAYLLPRVVGLGHATRLLMLGDTVRAPEAERIGLISELTEEGRADEAARTLARRLADGPALAHAQTKALLTAELDMPLAAAVELDASTQALLMTGEDYAEFHAAFTEKRPPKWQGR	not failed
